In IntAct's records for PubMed 23809763:

B1: R-spondin-1 (Homo sapiens), Q2MKA7 (parent)
chain: MRLGLCVVALVLSWTHLTISSRGIKGKRQRRISAEGSQACAKGCELCSEVNGCLKCSPKLFILLERNDIRQVGVCLPSCPPGYFDARNPDMNKCIKCKIEHCEACFSHNFCTKCKEGLYLHKGRCYPACPEGSSAANGTMECSSPAQCEMSEWSPWGPCSKKQQLCGFRRGSEERTRRVLHAPVGDHAACSDTKETRRCTVRRVPCPEGQKRRKGGQGRRENANRNLARKESKEAGAGSRRRKGQQQQQQQGTVGPLTSAGPA
partner: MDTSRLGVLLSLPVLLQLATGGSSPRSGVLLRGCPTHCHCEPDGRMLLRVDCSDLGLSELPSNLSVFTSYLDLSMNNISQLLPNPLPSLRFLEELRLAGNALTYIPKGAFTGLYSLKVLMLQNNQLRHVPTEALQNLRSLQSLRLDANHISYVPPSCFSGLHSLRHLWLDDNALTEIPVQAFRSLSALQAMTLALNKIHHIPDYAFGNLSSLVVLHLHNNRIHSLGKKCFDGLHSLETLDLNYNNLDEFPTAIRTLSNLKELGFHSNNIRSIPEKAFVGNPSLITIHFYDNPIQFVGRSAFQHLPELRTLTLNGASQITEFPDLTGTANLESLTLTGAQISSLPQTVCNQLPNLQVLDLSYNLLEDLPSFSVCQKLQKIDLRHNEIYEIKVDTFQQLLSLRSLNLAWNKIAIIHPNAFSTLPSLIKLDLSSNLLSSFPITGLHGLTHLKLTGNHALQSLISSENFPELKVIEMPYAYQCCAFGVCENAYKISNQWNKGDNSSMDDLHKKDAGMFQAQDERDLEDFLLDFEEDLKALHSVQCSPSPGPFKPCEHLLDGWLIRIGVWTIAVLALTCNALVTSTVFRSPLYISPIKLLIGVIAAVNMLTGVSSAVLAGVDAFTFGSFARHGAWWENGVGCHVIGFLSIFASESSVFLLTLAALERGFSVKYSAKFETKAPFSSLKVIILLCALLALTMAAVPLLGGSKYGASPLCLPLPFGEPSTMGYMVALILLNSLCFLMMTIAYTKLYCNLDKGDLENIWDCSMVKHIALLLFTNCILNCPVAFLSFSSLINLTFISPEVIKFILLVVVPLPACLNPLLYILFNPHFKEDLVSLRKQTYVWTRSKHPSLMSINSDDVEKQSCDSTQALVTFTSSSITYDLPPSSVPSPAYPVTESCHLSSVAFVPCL

Variants of: B1
Settings: with lgr5_human LGR5, O75473

| Variant | effect of a mutation on the interaction |
| --- | --- |
| R66A | with no effect |
| R66W | with no effect |
| R70A | decreasing interaction strength |
| R70C | with no effect |
| R70E | with no effect |
| Q71E | with no effect |
| Q71R | with no effect |
| G73E | with no effect |
| G73R | with no effect |
| G82E | with no effect |
| F106E | disrupting interaction strength |
| F110E | disrupting interaction strength |
